Data on 2 molecules can be found in article doi:10.1101/2022.03.18.484894, “Molecular determinants of the Bacillus subtilis chromosome origin basal unwinding system”.

Data set [1] has as its target DnaA R264A (Bacillus subtilis, UniProt P05648 1-446, R264A). Briefly: EMSA; smaller complex that enters the gel; EMSA: 13 nM scaffold, 250-1000 nM DnaA, 10 mM HEPES-KOH pH 8, 100 mM K-glutamate, 1 mM Mg acetate, 30% glycerol, 10% DMSO, 1 mM ADP or ATP, 20 C, 3 h; 6% PAGE with 5 mM MgCl2. Conditions: protein: recombinant; tags: none after cleavage of His14-SUMO; label: 5'-Cy3 on strand 1 (oHM752); 5'-Cy5 on strand 2 (oHM590); three-strand duplex: strands 1 and 2 adjacent (nick) on 41-nt strand 3, blunt.

Data set [2] deals with T1, DnaA (Bacillus subtilis, UniProt P05648 1-446). Description: EMSA; ATP; large complex near the well plus strand separation; EMSA: 13 nM scaffold, 250-1000 nM DnaA, 10 mM HEPES-KOH pH 8, 100 mM K-glutamate, 1 mM Mg acetate, 30% glycerol, 10% DMSO, 1 mM ADP or ATP, 20 C, 3 h; 6% PAGE with 5 mM MgCl2. Conditions: protein: recombinant; tags: none after cleavage of His14-SUMO; label: 5'-Cy3 on strand 1 (oHM752); 5'-Cy5 on strand 2 (oHM590); three-strand duplex: strands 1 and 2 adjacent (nick) on 41-nt strand 3, blunt.

Data set [3] has as its target T1, DnaA. Briefly: EMSA; ATP; large complexes enter the gel poorly; EMSA: 13 nM scaffold, 250-1000 nM DnaA, 10 mM HEPES-KOH pH 8, 100 mM K-glutamate, 1 mM Mg acetate, 30% glycerol, 10% DMSO, 1 mM ADP or ATP, 20 C, 3 h; 6% PAGE with 5 mM MgCl2. The conditions noted are these: protein: recombinant; tags: none after cleavage of His14-SUMO; label: Cy3 on annealed strand; Cy5 on separated strand; three-strand scaffold.

B1: B. subtilis WT BUS scaffold (EMSA substrate) (dsDNA)
DNA 1: ACTTATCCACAAATCCACAGGCCC
DNA 2: TACTATTACTTCTACTA
DNA 3: TAGTAGAAGTAATAGTAGGGCCTGTGGATTTGTGGATAAGT
Consider B1, for which the binding result in data set [1] and in data set [2] was “binds” in each case.

B2: BUS scaffold with phosphorothioate backbone (EMSA) (XNA)
DNA 1: ACTTATCCACAAATCCACAGGCC
DNA 2: CTACTATTACTTCTACTA
DNA 3: TAGTAGAAGTAATAGTAGGGCCTGTGGATTTGTGGATAAGT
modifications: phosphorothioate linkages in the DnaA-trio region; exact positions of the EMSA version not stated
Turning to B2, the binding result in data set [3] is “binds”.
